According to US20140377262A1:

Tests used:
[1] = target: HA protein of B/Florida/4/2006 (vaccine antigen) (influenza B virus B/Florida/4/2006)
[2] = target: HA protein of B/Malaysia/2506/2004 (influenza B virus B/Malaysia/2506/2004); assay: cell-based or functional assay
[3] = target: HA protein of B/Victoria/2/1987 (influenza B virus B/Victoria/2/1987); assay: cell-based or functional assay
[4] = target: HA protein of B/Yamanashi/166/1998 (influenza B virus B/Yamanashi/166/1998); assay: cell-based or functional assay
[5] = target: HA protein of B/Shanghai/361/2002 (influenza B virus B/Shanghai/361/2002); assay: cell-based or functional assay
[6] = target: HA protein of B/Florida/4/2006 (influenza B virus B/Florida/4/2006); assay: cell-based or functional assay
[7] = target: HA protein of B/Johannesburg/5/1999 (influenza B virus B/Johannesburg/5/1999); assay: cell-based or functional assay
[8] = target: HA protein of B/Mie/1/1993 (influenza B virus B/Mie/1/1993); assay: cell-based or functional assay
[9] = target: HA protein of B/Shandong/7/1997 (influenza B virus B/Shandong/7/1997); assay: cell-based or functional assay

B1: HuMAb 5A7 (human monoclonal antibody from hybridoma) (antibody, V domains shown)
VH: QVQLVESGGDVVQPGRSLRLSCAASGFTFNNYGMHWVRQAPGKGLEWVAVVWYDGLIKYYADSVKGRFTISRDNSKNTLYLQMNTLRAEDMGVYYCARDLQPPHSPYGMDVWGQGTTVTVSS
VL: QSVLTQPPSASGTPGQRVTISCSGSSSNIGSNDVYWYQNLPGTAPKLLIYNNNQRPSGVPDRFSGSKSGTSASLAISGLRSEDEADYYCAAWDDSLTVSFGTGTKVTVL
Kd [1]: < 5.6 nM
VN50 [2]: 6.25 µg/mL
VN50 [3]: 25 µg/mL
VN50 [4]: 6.25 µg/mL
VN50 [5]: 6.25 µg/mL
Fusion inhibition [6]: 100 µg/mL
HI [6]: 25 µg/mL
VN50 [6]: 6.25 µg/mL
VN50 [7]: 6.25 µg/mL
VN50 [8]: 6.25 µg/mL
VN50 [9]: 25 µg/mL
